# Source: the DeepSol protein solubility set
# Experiment: soluble on expression in E. coli; label from the status in PepcDB or PDB records
row,Sequence,soluble on expression in E. coli
1,MGSDKIHHHHHHMVATENRMLMEIAAEISAREATLGFQEVKTKSRSAGLTAAFDIASVFFSSGCNVVVAFDRFASNWSDHSDHVDYAAQVAGFGASMLAYTVRRGQFDTAVRDIRDIKSEVDIPILLHDPIIDPYQIHEARVMGIDALQFPVWAMEQARLESLVDRTESLGMTAIVSVRNHEEAHRAVDAGATVVAIDITGYTGSLTLPEAFSGITQFMPKEVARIVLGGCSSPKELMRFARHSADAIFVPHADLATTKSLVTAGMHPACPSR,not soluble
2,MGSDKIHHHHHHMVDGMKHLILKVTNRCNLNCIYCYANNKNNKDMDFKTAKNAIDYLLNLDNQIKIQFTGGEPLLNFNLIEKIVDYCNDNYSNCNIQYAIQTNATLINEKIAEKIKELDIKVGISIDGLEINDILRPYKNGKPSTLDTLKGMYILKSYNIPFGITTVVTNKNLPYLEEFVKYLIAFGVKSISFDLLKPKKKEHLTLMPNIEEFNKLLNKLGRYPIYIKNLQKRPKDKYCYLNSGDLLFVNEFGDIYLCPTLEGLSCLGNINDKNKIKLPKVKSKGCYAREFLIKTFKK,not soluble
3,MGSDKIHHHHHHMVHGVPCFVAHRGYPALYPENSLVGIRAAVQAGARYVEIDIQLSRQLTPYLCHDDNLKRLTGRNAYLTRLKDDEIDTLTVSCPDVTCSSGTEPAPIPRLAEFCRYLAQHPQVTTFVEIKSESIARFGLSKTMDAILPVIDVVHTQCVLISFDWELIALIKSHQMYKTGWIIEHWTDEQSAMAARLQPDYLFSSIRCLPEKLDQLWPGPWQWVIYTVDDYATALGYAEAGITLIETDTISTLLAP,not soluble
4,MGSDKIHHHHHHMVIENAMNIQFVLKDFSTFGGVERIQYNLAKKFKNDGHNVSFYILNGDSVALDTSHEFIIHKGSKSGFITFLFEIIKLRNNIYKNRIDVVIAAKEQANIAAFFATIFTKVSTIYTRHSALNVSEQRINERSVLLIYSLLTLSKGKVVTVSHDLKYSLLKSLPWGKDKIHVCPNPVLTESIYLKSLQPITDFKLPLSYICSVGRLTRTKGFDVLIQAYKQCITKELNFPDLVIAGSGEEYASLVKLTQELNVADKVHFLGHIDNPYVLMKNSSGFVLSSRNEGLPTVLIEAIALGTNVVSTDCLTGPREILDGGRIGKLVPVEDVRSLAEAMLTLPLHKLSESEIREMDRYSLEQSAIAYFKLFTKKSH,not soluble
5,MGSDKIHHHHHHMVLMKKLMMKGNEAIAESAIRAGCRLYFAYPITPQSEIAEYMARRLPEVGGVFLQTESEIATVNMVYGAACTGKRVMTSTSSPGFSLMQEGISYIAGAELPCVFVDVVRGGPGLGNIQPSQGDYFQAVKGGGHGDYRLIVLAPSTLQEAVDLTQLAFDLADRYRNPVLILADGMIGQMMEPVELPEMRDLSTLPDHSDWALRGARNREPHRIAAFNIDPVGLEKMNKRLQEKYRLIEASEQRWEEYRVDGAEYLMVGYGTMGRILKSVVDSLREEGIPAGLFRPVTLWPFPKRRLKELAKKVQLIFVVEMSSGQMVEDVQISVEGKVPVHFYGRMGGVVPTPEEILFAFKEVRKWK,not soluble
6,MGSDKIHHHHHHMVMEYELRTPLVKDQILKLKVGDVVYITGEIFTARDEAHARALEWMEEGKELPFSFDKGVVYHCGPLVKKNDEWRVVSAGPTTSARMNPFTPKILEKVECMGIIGKGGMSEEVVEAMRGKAAYFAFTGGAGALAAMSIKKVKGVVWEDLGMPEAVWLLEVERFGPCIVAIDAHGNSLYRR,soluble
7,MGSDKIHHHHHHMVNAAQAVMESSGQFHVEPEGVIRMSVPKAVGHFMIHPHLPEFLERYPKIDIQMLLEDRYVDLIDDGVDLALRITEQPPGGLMGRKLIDIDHLVCATPEYLSKHGTPNHPHDLKQHECIYLGEQASDSKWKFQQGNKSISVAVRGRYAANHTGVRLSAALQHLGIASLPYFVARHALQQGTLVQVLPDWYFKTYYSGGLWLLYPPTRHVQPKLSVLIQYLADKLAAEPTLFKLK,not soluble
8,MGSDKIHHHHHHMVNQGVDISVIAPQSITRHLLKGDPLLAVDSEKKIGNRSYHIYRPKYLTLGNAPRWIQNILEWLRYKVILRVITKHNLKPDAIYGHFWQNAFDIRKYCYKNGTPLFVACGEGDTALEDLVNSLSFAEKKRLSNAVTGVISVSSLNKRKCIEYGLSKAEDIVVLPNSVNSSLFSDINPLNRNSLGVFDDDFLIVFTGGFIHRKGASRLAAAIDKIGDKRIKVIFIGKPVPGDDATPHCNGIVHIGALEHDDIPSYLSAADVFCLPTLNEGCSNAIVEAIACGLPIISSNLPFNDDILDSSNALLVNPESVDDIASAIKQLMDNSDLRQKLAEGSKEKAKSLRIEFRAKKIIEFINRQMQK,not soluble
